Measured values as given in article PMC12582157.

Assays:
[1] = molecular target: T1, β-conglutin (Lupinus albus (white lupin)?) (UniProt Q53HY0); experiment: ELAA; details: Binding buffer, salt, pH and temperature not given in the material
T1 sequence: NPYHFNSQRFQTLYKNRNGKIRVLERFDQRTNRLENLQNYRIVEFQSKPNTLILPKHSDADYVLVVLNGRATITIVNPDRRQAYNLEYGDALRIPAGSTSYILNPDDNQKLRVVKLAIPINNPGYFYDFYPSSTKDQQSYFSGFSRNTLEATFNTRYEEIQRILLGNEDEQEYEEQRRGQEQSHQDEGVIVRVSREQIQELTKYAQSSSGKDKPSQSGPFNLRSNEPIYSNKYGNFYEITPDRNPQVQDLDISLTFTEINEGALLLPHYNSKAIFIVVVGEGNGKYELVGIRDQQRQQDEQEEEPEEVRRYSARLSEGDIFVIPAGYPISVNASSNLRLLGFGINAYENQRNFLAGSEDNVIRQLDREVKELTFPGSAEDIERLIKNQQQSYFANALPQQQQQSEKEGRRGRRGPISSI

[2] = molecular target: T1, β-conglutin (Lupinus albus (white lupin)?); experiment: MST; details: Binding buffer, salt, pH and temperature not given in the material
[3] = molecular target: T1, β-conglutin (Lupinus albus (white lupin)?); experiment: SPR; details: dA outside the 5' primer region (nt 24-94) replaced by indole-modified dA (dAEIn); Binding buffer, salt, pH and temperature not given in the material
[4] = molecular target: T1, β-conglutin (Lupinus albus (white lupin)?); experiment: BLI; details: 1:1 model, Binding buffer, salt
[5] = dA outside the 5' primer region (nt 24-94) replaced by indole-modified dA (dAEIn)
[6] = all dA = dAEIn, 5' dC carries Cy5

With “AGCTCCAGAAGATAAATTACAGGCCAAGATCTCGCGAGTTCCCAACAGGGCAGAGAGATGCCCGACACCAGTGCAACTAGGATACTATGACCCC [HB8]” the Kd [1, 5] was 0.6 nM, the Kd [2, 5] was 41 nM and the Kd [3] was 92 nM. For the same sequence, the Kd ([4]; dA outside the 5' primer region (nt 24-94) replaced by indole-modified dA (dAEIn), pH and temperature not given in the …) was 0.9 nM.
“AGCTCCAGAAGATAAATTACAGGCCAAGATCTCGCGAGTTCCCAACAGGGCAGAGAGATGCCCGACACCAGTGCAACTAGGATACTATGACCCC [HB8_M2]” gave a Kd ([2]; dAEIn in nt 24-73, 3' 21 nt with natural dA) of 44 nM.
“CCAAGATCTCGCGAGTTCCCAACAGGGCAGAGAGATGCCCGACACCAGTGCAACTAGGATACTATGACCCC [HB8_T2]” showed a Kd [2, 6] of 256 nM.
Sequence “GATAAATTACAGGCCAAGATCTCGCGAGTTCCCAACAGGGCAGAGAGATGCCCGACACCAGTGCAACTAGGATACTATGACCCC [HB8_T4]” has a Kd ([2]; dA after the 13 nt primer remainder = dAEIn) of 24 nM.
“AGCTCCAGAAGATAAATTACAGGCCAAGATCTCGCGAGTTCCCAACAGGGCAGAGAGATGCCCGACACCAGTGCAACTAGGATACTATGACCCC [HB8_M1]” was tested, and the Kd ([2]; dAEIn as in HB8 except three central positions following the primer, which are natural dA) was 134 nM.
For “AGCTCCAGAAGATAAATTACAGGCCAAGATCTCGCGAGTTCCCAACAGGGCAGAGAGATGCCCGACACCAGTG [HB8_T1]”, the Kd ([2]; dA in nt 24-73 = dAEIn) was 42 nM and the Kd ([4]; dA in nt 24-73 = dAEIn, pH and temperature not given in the material) was 0.6 nM.
Work on “CCAAGATCTCGCGAGTTCCCAACAGGGCAGAGAGATGCCCGACACCAGTG [HB8_T3]” yielded a Kd [2, 6] of 145 nM.
“AGCTCCAGAAGATAAATTACAGGCAAGATCACCGTAGACGCGTCGAGAAGTGTGAGATCCTATGAAATGACCGCAACTAGGATACTATGACCCC [HB7]” was tested, and the Kd ([1]; dA outside 5' primer = dAEIn) was 1.1 nM.
